Results on three molecules are retold here after patent publication US20220403048A1, “BINDING MOLECULES TO ARGINASE II [ARG2]” (Cancer Research Technology Limited, priority 2019, published 2022).

As usually defined, the IC50 is the concentration at which inhibition is half-maximal.

The target of experiment [1] is recombinant human trimeric ARG2 enzyme (construct not given) (human) (UniProt P78540). Description: cell-based or functional assay.
Experiment [2] addresses biotinylated recombinant human trimeric ARG2 enzyme (Avi-huARG2-His10) (human) (UniProt P78540). Description: HTRF epitope competition, scFv titrated, competitor C0020187 IgG, on biotinylated human trimeric ARG2. (TR-FRET usually uses a lanthanide donor and a delayed reading to cut background.)
Experiment [3] concerns the target recombinant human trimeric ARG2 enzyme (construct not given) (human) (UniProt P78540). Description: dynamic light scattering, 8 µM each.
Target sequence in this assay (P78540 23-354, form in doubt): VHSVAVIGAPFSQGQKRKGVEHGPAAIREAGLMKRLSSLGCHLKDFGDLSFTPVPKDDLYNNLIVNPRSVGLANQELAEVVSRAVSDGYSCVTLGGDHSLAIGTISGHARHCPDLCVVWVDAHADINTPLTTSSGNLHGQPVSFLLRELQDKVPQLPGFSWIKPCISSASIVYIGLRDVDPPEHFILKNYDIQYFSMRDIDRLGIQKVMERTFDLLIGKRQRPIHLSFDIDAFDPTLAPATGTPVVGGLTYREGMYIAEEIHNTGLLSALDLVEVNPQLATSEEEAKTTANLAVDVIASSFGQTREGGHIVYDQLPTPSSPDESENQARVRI
Experiment [4] shares this target. As to the kind of experiment: size-exclusion chromatography, 8 µM each. A general note: SEC sorts molecules by how far they enter the pores of the column.
Target sequence in this assay (P78540 23-354, form in doubt): as above

Substitutions are numbered along the chain they refer to. Some results are limits rather than exact numbers.

Sequence of biotinylated recombinant human trimeric ARG2 enzyme (Avi-huARG2-His10) (human) (P78540 other isoform, or with tags, fused parts or gaps limits assumed, form in doubt): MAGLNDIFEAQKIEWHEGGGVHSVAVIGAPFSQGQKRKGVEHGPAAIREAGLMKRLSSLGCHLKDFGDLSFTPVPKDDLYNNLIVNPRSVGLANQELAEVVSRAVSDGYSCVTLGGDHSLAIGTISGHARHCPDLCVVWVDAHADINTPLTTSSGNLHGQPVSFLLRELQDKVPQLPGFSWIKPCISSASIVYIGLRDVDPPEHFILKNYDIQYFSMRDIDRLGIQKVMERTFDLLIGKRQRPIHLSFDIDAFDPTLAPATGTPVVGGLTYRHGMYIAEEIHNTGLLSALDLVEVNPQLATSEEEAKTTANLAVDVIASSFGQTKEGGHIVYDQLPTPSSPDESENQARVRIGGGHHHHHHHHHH

B1: C0021142 scFv (scFv, part only; not given: linker, domain order, tag, V domains shown, not shown: another chain or arm of the molecule; small tags and cut ends)
VH: EVQLLESGGGLVQPGGSLRLSCAASGFTFSSYAMSWVRQAPGKGLEWVSAHTHSPGSTYYADSVKGRFTISRDNSKNTLYLQMNSLRAEDTAVYYCARLRADLGLYMDLWGRGTLVTVSS
VL: QSVLTQPPSVSAAPGQKVTISCSGSSSNIGNHYVSWYQQLPGTAPKLLIYDNSERPSGVPDRFSGSKSGTSATLGITGLQTGDEADYYCGTWDSSLSALVFGGGTKLTVL
As to B1, in experiment [1], the Trimeric human ARG2 EIA IC50 came out at 97.6 nM. In experiment [2], the IC50 came out at 57.8 nM.

B2: C0021139 Fab (Fab, V domains shown)
VH: B1 VH with S30Q, S31Y, Y32D, A33Y, M34Q, S35V, H51I, T52S, H53G, P55G
VL: B1 VL with P56T, V59I, S94E, S95L, L96T, A98N
With B2, the increase in average hydrodynamic radius (Rh) against ARG2-C0020187 Fab complexes in experiment [3] was 1.5 nm. Also, in experiment [4], the SEC peak of the 1:1 molar ARG2:Fab mixture is 275 kDa.

B3: C0020065 recombinant human IgG1 (antibody, V domains shown)
VH: GVNLRESGGGVVQPGRSLRLSCAASGFTFSSYAMHWVRQAPGKGLEWVAVISYDGSNKYYVDSVKGRFTISRDNSKNTLYLQMNSLRAEDTAVYYCARDSSQLWFDYWGRGTLVTVSS
VL: QSVVTQPPSVSGAPGQRVTISCTGSSSNIGTGYDVHWYQQLPGTAPKLLIYGNSNRPSGVPDRFSGSKSGTSASLAITGLQAEDEADYYCQSYDSSLSGSVVFGGGTQLTVL
Turning to B3, in experiment [1], the EC50, In Presence of rhARG2 (T cell proliferation) was > 2000 nM and the Maximum % Proliferation, In Presence of rhARG2 amounted to 49%.
